One test has as its target T1, human Notch1 NRR protein (human, UniProt P46531 1446-1733).
T1 construct: Purified NRR fragment (Flag-tagged in the ELISA); also called NRR1; hNotch1 NRR
T1 sequence: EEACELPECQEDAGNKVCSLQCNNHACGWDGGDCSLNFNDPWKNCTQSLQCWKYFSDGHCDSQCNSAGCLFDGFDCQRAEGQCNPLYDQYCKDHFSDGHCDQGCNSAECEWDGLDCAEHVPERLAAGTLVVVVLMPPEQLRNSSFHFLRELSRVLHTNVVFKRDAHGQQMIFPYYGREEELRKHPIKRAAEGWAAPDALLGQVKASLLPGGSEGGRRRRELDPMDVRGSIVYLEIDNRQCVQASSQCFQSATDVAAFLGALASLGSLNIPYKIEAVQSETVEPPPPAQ
The experiment in a line: ELISA, lower panel: Flag-tagged NRR protein captured by anti-Flag antibody, titration of α-NRR2, A560. From the text: (§1) Anti-Flag antibody was used to capture Flag-Tagged NRR protein from all four Notch receptors in a black walled, high binding plate (Greiner). NRR antibody and E25 control antibodies were bound to the NRR proteins and washed away with PBS. An Alkaline Phosphate conjugated anti-human (H+L) secondary antibody (Jackson ImmunoResearch) was used to detect bound anti-NRR and E25. Unbound secondary was washed away and AP was detected with PNPP substrate (Pierce).
On the technique in general: In an ELISA, binding on a coated surface is turned into a signal by an enzyme label.

A further test addresses T2, mouse Notch3-NRR protein (mouse, UniProt Q61982 1385-1641, limits assumed).
T2 construct: domain: NRR; also called mNotch3 NRR
T2 sequence (looked up): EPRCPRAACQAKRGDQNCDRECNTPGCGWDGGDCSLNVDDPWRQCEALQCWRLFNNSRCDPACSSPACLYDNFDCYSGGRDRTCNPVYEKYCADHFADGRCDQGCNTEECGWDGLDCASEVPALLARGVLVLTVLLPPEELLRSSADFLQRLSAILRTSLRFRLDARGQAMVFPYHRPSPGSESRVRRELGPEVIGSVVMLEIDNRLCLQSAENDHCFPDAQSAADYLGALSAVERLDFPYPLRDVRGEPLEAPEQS
Described as above.
Text: as §1

The target of a further test is T3, human Notch3-NRR protein (human, UniProt Q9UM47 1384-1641, limits assumed).
T3 construct: domain: NRR; also called hNotch3 NRR
T3 sequence (looked up): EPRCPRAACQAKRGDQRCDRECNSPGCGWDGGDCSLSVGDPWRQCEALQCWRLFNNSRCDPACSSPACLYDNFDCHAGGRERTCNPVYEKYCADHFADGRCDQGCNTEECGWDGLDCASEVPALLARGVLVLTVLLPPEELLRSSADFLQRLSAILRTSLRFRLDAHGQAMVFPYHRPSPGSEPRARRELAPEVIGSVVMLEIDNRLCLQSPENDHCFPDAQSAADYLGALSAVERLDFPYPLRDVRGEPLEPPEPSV
The description is as above.
Text: as §1

For a further test, the target named is T4, mouse Notch1 NRR protein (mouse, UniProt Q01705 1446-1723).
T4 construct: Purified NRR fragment (Flag-tagged in the ELISA); also called mNotch1 NRR
T4 sequence: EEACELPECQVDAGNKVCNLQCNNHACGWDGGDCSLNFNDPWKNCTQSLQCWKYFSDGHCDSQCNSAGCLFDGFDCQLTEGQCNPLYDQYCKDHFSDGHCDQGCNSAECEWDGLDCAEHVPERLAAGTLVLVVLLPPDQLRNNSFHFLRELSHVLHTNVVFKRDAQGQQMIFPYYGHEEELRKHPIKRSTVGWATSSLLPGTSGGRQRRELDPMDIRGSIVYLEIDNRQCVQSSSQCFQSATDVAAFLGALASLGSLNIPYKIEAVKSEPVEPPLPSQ
The description is as above.
Text: as §1

In a further test the target is T5, human Notch4-NRR protein (human, UniProt Q99466 1172-1445, limits assumed).
T5 construct: domain: NRR; also called hNotch4 NRR
T5 sequence (looked up): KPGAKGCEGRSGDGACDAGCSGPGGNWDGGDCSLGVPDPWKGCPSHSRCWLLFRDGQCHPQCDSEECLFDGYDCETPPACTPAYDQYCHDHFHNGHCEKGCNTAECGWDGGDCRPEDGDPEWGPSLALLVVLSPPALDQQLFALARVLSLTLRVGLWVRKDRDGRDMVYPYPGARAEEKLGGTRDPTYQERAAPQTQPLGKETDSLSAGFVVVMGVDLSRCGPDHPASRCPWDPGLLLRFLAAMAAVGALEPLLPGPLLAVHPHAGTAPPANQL
The test is described as above.
Text: as §1

Another test deals with T6, mouse Notch4-NRR protein (mouse, UniProt P31695 1168-1441, limits assumed).
T6 construct: domain: NRR; also called mNotch4 NRR
T6 sequence (looked up): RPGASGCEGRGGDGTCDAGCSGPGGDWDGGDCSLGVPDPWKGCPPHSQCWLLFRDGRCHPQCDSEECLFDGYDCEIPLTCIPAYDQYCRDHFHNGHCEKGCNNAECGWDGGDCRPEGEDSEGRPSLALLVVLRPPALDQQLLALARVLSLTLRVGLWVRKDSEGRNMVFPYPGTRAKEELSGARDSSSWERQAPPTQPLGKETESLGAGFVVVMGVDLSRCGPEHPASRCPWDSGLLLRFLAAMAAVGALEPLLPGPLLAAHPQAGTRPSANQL
Described as above.
Text: as §1

Test [1] has as its target T7, FLAG-Human-Notch2-NRR-6xHis (human, UniProt Q04721 1306-1676).
T7 construct: Whole tagged antigen construct; also called NRR2; hNotch2 NRR
T7 sequence: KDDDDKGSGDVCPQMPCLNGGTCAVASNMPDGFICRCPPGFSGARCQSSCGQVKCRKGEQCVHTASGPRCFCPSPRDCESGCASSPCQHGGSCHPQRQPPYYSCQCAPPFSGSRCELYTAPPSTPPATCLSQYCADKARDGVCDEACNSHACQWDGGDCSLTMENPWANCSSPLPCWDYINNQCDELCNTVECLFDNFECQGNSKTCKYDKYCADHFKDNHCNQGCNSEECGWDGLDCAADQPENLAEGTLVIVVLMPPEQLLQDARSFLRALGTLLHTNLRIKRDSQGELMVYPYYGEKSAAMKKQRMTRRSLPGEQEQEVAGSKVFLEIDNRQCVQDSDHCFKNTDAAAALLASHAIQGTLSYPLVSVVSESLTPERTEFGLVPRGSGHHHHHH
Description: SPR (BIAcore-3000), IgG captured by anti-human IgG, Notch2 NRR injected; human Notch2 NRR antigen. Here is the method: (§2) For kinetics measurements, two-fold serial dilutions of human and mouse Notch2 NRR (3.9 nM to 500 nM) were injected in PBT buffer (PBS with 0.05% Tween 20) at 25° C. with a flow rate of 30 μl/min. Association rates (kₒₙ) and dissociation rates (koff) were calculated using a simple one-to-one Langmuir binding model (BIAcore Evaluation Software version 3.2). The equilibrium dissociation constant (KD) was calculated as the ratio koff/kₒₙ.
On the technique in general: In SPR one partner is held on a chip, and binding of the other changes the refractive index at the surface.

In a further test the target is T8, Mouse Notch2-NRR-FLAG (mouse, UniProt O35516 1306-1678).
T8 construct: Whole tagged antigen construct; also called murine Notch2 NRR; mNotch2 NRR
T8 sequence: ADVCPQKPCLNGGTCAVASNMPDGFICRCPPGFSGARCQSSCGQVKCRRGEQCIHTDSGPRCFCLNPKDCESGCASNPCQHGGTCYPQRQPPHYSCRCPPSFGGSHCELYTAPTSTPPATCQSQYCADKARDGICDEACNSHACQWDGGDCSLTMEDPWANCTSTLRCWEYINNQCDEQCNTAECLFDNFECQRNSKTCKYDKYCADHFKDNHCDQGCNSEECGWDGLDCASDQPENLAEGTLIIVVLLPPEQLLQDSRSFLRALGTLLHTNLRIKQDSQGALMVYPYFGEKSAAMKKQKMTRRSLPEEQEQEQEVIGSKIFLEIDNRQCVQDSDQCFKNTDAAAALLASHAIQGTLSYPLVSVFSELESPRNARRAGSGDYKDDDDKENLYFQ
The experiment in a line: SPR (BIAcore-3000), IgG captured by anti-human IgG, Notch2 NRR injected; mouse Notch2 NRR antigen. Here is the method:
as §2

Test [2] deals with T7, FLAG-Human-Notch2-NRR-6xHis. Description: ELISA, lower panel: Flag-tagged NRR protein captured by anti-Flag antibody, titration of α-NRR2, AP-conjugated anti-human secondary antibody, A560.
Text: as §1

B1: Antibody D-3 (antibody, V domains shown)
VH: EVQLVESGGGLVQPGGSLRLSCAASGYTFSSYGMSWVRQAPGKGLEWVSYIYPYSGATYYADSVKGRFTISADTSKNTAYLQMNSLRAEDTAVYYCARHSGYYRISSAMDVWGQGTLVTVSA
VL: DIQMTQSPSSLSASVGDRVTITCRASQNIKRFLAWYQQKPGKAPKLLIYGASTRESGVPSRFSGSGSGTDFTLTISSLQPEDFATYYCQQYYRSPHTFGQGTKVEIKR
notes: also called anti-NRR2; α-NRR2
For the molecule B1, the binding result with human Notch1 NRR protein, with mouse Notch3-NRR protein, in the test with human Notch3-NRR protein, with mouse Notch1 NRR protein, in the test with human Notch4-NRR protein and with mouse Notch4-NRR protein was “no binding (tested: 10 ug/ml)” throughout. For the same molecule, the Kd (in [1]; with Mouse Notch2-NRR-FLAG) was 5 nM each time. Moreover, the EC50 (read off the curve) (usually the concentration giving half of the maximal effect) in [2] was around 0.03 µg/mL.
